test system: Escherichia coli TOP10; test: shrunken log2 fold change of peptide-encoding DNA abundance (4.5 h post-induction vs induction); higher = less antimicrobial activity (less host growth inhibition); conditions: time post-induction: 4.5 h; library: site-saturation at positions 5, 18, 19, 20
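Also: peptides expressed intracellularly from a pBAD plasmid library in pooled LB shake-flask culture, induced with 0.3% L-arabinose, DNA abundance read by NGS, three biological replicates, DESeq2 with apeglm shrinkage.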

Row | Sequence | shrunken log2 fold change
1 | RRIRVRPPRLPRPRPRPAYLPRP | 0.0246
2 | RRIRVRPPRLPRPRPRPCALPRP | -0.115
3 | RRIRVRPPRLPRPRPRPCAPPRP | -0.22
4 | RRIRVRPPRLPRPRPRPCDSPRP | -0.0445
5 | RRIRVRPPRLPRPRPRPCEHPRP | -0.0331
6 | RRIRVRPPRLPRPRPRPCETPRP | 0.0572
7 | RRIRVRPPRLPRPRPRPCFFPRP | -0.137
8 | RRIRVRPPRLPRPRPRPCGPPRP | -0.0876
9 | RRIRVRPPRLPRPRPRPCHLPRP | -0.00192
10 | RRIRVRPPRLPRPRPRPCIAPRP | -0.298
11 | RRIRVRPPRLPRPRPRPCIIPRP | -0.0793
12 | RRIRVRPPRLPRPRPRPCIVPRP | -0.0169
13 | RRIRVRPPRLPRPRPRPCKCPRP | -0.239
14 | RRIRVRPPRLPRPRPRPCKVPRP | 0.00272
15 | RRIRVRPPRLPRPRPRPCLRPRP | -0.146
16 | RRIRVRPPRLPRPRPRPCMRPRP | 0.108
17 | RRIRVRPPRLPRPRPRPCNIPRP | 0.0254
18 | RRIRVRPPRLPRPRPRPCNLPRP | -0.163
19 | RRIRVRPPRLPRPRPRPCNYPRP | -0.119
20 | RRIRVRPPRLPRPRPRPCPQPRP | -0.0828
21 | RRIRVRPPRLPRPRPRPCRHPRP | 0.0429
22 | RRIRVRPPRLPRPRPRPCRKPRP | 0.068
23 | RRIRVRPPRLPRPRPRPCRPPRP | 0.00447
24 | RRIRVRPPRLPRPRPRPCRVPRP | 0.00617
25 | RRIRVRPPRLPRPRPRPCSYPRP | -0.0326

Row | Sequence | shrunken log2 fold change
26 | RRIRVRPPRLPRPRPRPCVTPRP | -0.0293
27 | RRIRVRPPRLPRPRPRPCWMPRP | -0.46
28 | RRIRVRPPRLPRPRPRPCWSPRP | 0.0821
29 | RRIRVRPPRLPRPRPRPCYCPRP | -0.32
30 | RRIRVRPPRLPRPRPRPCYPPRP | -0.327
31 | RRIRVRPPRLPRPRPRPCYYPRP | -0.147
32 | RRIRVRPPRLPRPRPRPDACPRP | -0.11
33 | RRIRVRPPRLPRPRPRPDAIPRP | 0.286
34 | RRIRVRPPRLPRPRPRPDCSPRP | -0.0973
35 | RRIRVRPPRLPRPRPRPDDFPRP | 0.0492
36 | RRIRVRPPRLPRPRPRPDDPPRP | 0.359
37 | RRIRVRPPRLPRPRPRPDEAPRP | -0.0574
38 | RRIRVRPPRLPRPRPRPDEIPRP | 0.0183
39 | RRIRVRPPRLPRPRPRPDEPPRP | 0.225
40 | RRIRVRPPRLPRPRPRPDFDPRP | 0.0753
41 | RRIRVRPPRLPRPRPRPDFIPRP | -0.396
42 | RRIRVRPPRLPRPRPRPDFPPRP | 0.0164
43 | RRIRVRPPRLPRPRPRPDHNPRP | -0.488
44 | RRIRVRPPRLPRPRPRPDHPPRP | -0.386
45 | RRIRVRPPRLPRPRPRPDIVPRP | -0.229
46 | RRIRVRPPRLPRPRPRPDLMPRP | -0.00839
47 | RRIRVRPPRLPRPRPRPDLSPRP | -0.011
48 | RRIRVRPPRLPRPRPRPDLVPRP | 0.211
49 | RRIRVRPPRLPRPRPRPDMGPRP | -0.0133
50 | RRIRVRPPRLPRPRPRPDPQPRP | 0.52

Row | Sequence | shrunken log2 fold change
51 | RRIRVRPPRLPRPRPRPDQMPRP | 0.0399
52 | RRIRVRPPRLPRPRPRPDSDPRP | -0.0912
53 | RRIRVRPPRLPRPRPRPDSGPRP | -0.0439
54 | RRIRVRPPRLPRPRPRPDSYPRP | 0.0384
55 | RRIRVRPPRLPRPRPRPDVHPRP | -0.159
56 | RRIRVRPPRLPRPRPRPDVRPRP | -0.106
57 | RRIRVRPPRLPRPRPRPDWKPRP | -0.0682
58 | RRIRVRPPRLPRPRPRPDWLPRP | -0.0563
59 | RRIRVRPPRLPRPRPRPDYCPRP | -0.207
60 | RRIRVRPPRLPRPRPRPEANPRP | -0.141
61 | RRIRVRPPRLPRPRPRPEAVPRP | 0.112
62 | RRIRVRPPRLPRPRPRPECEPRP | 0.605
63 | RRIRVRPPRLPRPRPRPECRPRP | 0.238
64 | RRIRVRPPRLPRPRPRPEDLPRP | 0.084
65 | RRIRVRPPRLPRPRPRPEDYPRP | 0.0316
66 | RRIRVRPPRLPRPRPRPEESPRP | 0.246
67 | RRIRVRPPRLPRPRPRPEFCPRP | 0.267
68 | RRIRVRPPRLPRPRPRPEGHPRP | -0.0324
69 | RRIRVRPPRLPRPRPRPEGTPRP | -0.00568
70 | RRIRVRPPRLPRPRPRPEHKPRP | -0.0815
71 | RRIRVRPPRLPRPRPRPEILPRP | -0.0486
72 | RRIRVRPPRLPRPRPRPEMGPRP | 0.104
73 | RRIRVRPPRLPRPRPRPEMVPRP | -0.0955
74 | RRIRVRPPRLPRPRPRPEQQPRP | 0.0394
75 | RRIRVRPPRLPRPRPRPERHPRP | -0.0734

Row | Sequence | shrunken log2 fold change
76 | RRIRVRPPRLPRPRPRPERIPRP | -0.00978
77 | RRIRVRPPRLPRPRPRPERTPRP | -0.111
78 | RRIRVRPPRLPRPRPRPESTPRP | 0.108
79 | RRIRVRPPRLPRPRPRPETQPRP | 0.259
80 | RRIRVRPPRLPRPRPRPEVGPRP | 0.175
81 | RRIRVRPPRLPRPRPRPEVHPRP | -0.0892
82 | RRIRVRPPRLPRPRPRPEVKPRP | 0.0366
83 | RRIRVRPPRLPRPRPRPEWCPRP | 0.323
84 | RRIRVRPPRLPRPRPRPFAKPRP | -0.307
85 | RRIRVRPPRLPRPRPRPFAQPRP | 0.0825
86 | RRIRVRPPRLPRPRPRPFARPRP | 0.206
87 | RRIRVRPPRLPRPRPRPFCLPRP | -0.357
88 | RRIRVRPPRLPRPRPRPFDIPRP | 0.145
89 | RRIRVRPPRLPRPRPRPFEDPRP | -0.151
90 | RRIRVRPPRLPRPRPRPFFKPRP | 0.0447
91 | RRIRVRPPRLPRPRPRPFFYPRP | 0.0563
92 | RRIRVRPPRLPRPRPRPFGAPRP | 0.258
93 | RRIRVRPPRLPRPRPRPFGRPRP | 0.0302
94 | RRIRVRPPRLPRPRPRPFGWPRP | 0.372
95 | RRIRVRPPRLPRPRPRPFGYPRP | -0.425
96 | RRIRVRPPRLPRPRPRPFHFPRP | -0.238
97 | RRIRVRPPRLPRPRPRPFIMPRP | -0.084
98 | RRIRVRPPRLPRPRPRPFKIPRP | -0.342
99 | RRIRVRPPRLPRPRPRPFKTPRP | 0.146
100 | RRIRVRPPRLPRPRPRPFKWPRP | 0.00238

Row | Sequence | shrunken log2 fold change
101 | RRIRVRPPRLPRPRPRPFLFPRP | -0.205
102 | RRIRVRPPRLPRPRPRPFLYPRP | -0.728
103 | RRIRVRPPRLPRPRPRPFMAPRP | -0.128
104 | RRIRVRPPRLPRPRPRPFMMPRP | 0.097
105 | RRIRVRPPRLPRPRPRPFNDPRP | -0.416
106 | RRIRVRPPRLPRPRPRPFNRPRP | -0.0378
107 | RRIRVRPPRLPRPRPRPFNSPRP | -0.00973
108 | RRIRVRPPRLPRPRPRPFPGPRP | 0.03
109 | RRIRVRPPRLPRPRPRPFPIPRP | -0.39
110 | RRIRVRPPRLPRPRPRPFPMPRP | -0.35
111 | RRIRVRPPRLPRPRPRPFQHPRP | -0.131
112 | RRIRVRPPRLPRPRPRPFRGPRP | 0.0214
113 | RRIRVRPPRLPRPRPRPFRTPRP | -0.0962
114 | RRIRVRPPRLPRPRPRPFSDPRP | -0.263
115 | RRIRVRPPRLPRPRPRPFTSPRP | -0.0104
116 | RRIRVRPPRLPRPRPRPFTYPRP | -0.105
117 | RRIRVRPPRLPRPRPRPFVCPRP | -0.744
118 | RRIRVRPPRLPRPRPRPFVVPRP | -0.107
119 | RRIRVRPPRLPRPRPRPFWEPRP | -0.0891
120 | RRIRVRPPRLPRPRPRPFWGPRP | -0.0605
121 | RRIRVRPPRLPRPRPRPFWTPRP | -0.427
122 | RRIRVRPPRLPRPRPRPGDAPRP | 0.0792
123 | RRIRVRPPRLPRPRPRPGEQPRP | -0.0154
124 | RRIRVRPPRLPRPRPRPGFIPRP | -0.202
125 | RRIRVRPPRLPRPRPRPGGGPRP | 0.695

Row | Sequence | shrunken log2 fold change
126 | RRIRVRPPRLPRPRPRPGGKPRP | 0.171
127 | RRIRVRPPRLPRPRPRPGHSPRP | -0.195
128 | RRIRVRPPRLPRPRPRPGLYPRP | -0.384
129 | RRIRVRPPRLPRPRPRPGMVPRP | 0.0182
130 | RRIRVRPPRLPRPRPRPGMYPRP | -0.241
131 | RRIRVRPPRLPRPRPRPGNSPRP | 0.0126
132 | RRIRVRPPRLPRPRPRPGPEPRP | 0.22
133 | RRIRVRPPRLPRPRPRPGQFPRP | -0.156
134 | RRIRVRPPRLPRPRPRPGRGPRP | 0.632
135 | RRIRVRPPRLPRPRPRPGRHPRP | 0.0728
136 | RRIRVRPPRLPRPRPRPGSHPRP | 0.105
137 | RRIRVRPPRLPRPRPRPGVWPRP | 1.88
138 | RRIRVRPPRLPRPRPRPGYDPRP | -0.422
139 | RRIRVRPPRLPRPRPRPHAAPRP | 0.156
140 | RRIRVRPPRLPRPRPRPHACPRP | 0.0734
141 | RRIRVRPPRLPRPRPRPHDFPRP | -0.00674
142 | RRIRVRPPRLPRPRPRPHEIPRP | 0.026
143 | RRIRVRPPRLPRPRPRPHFRPRP | -0.0776
144 | RRIRVRPPRLPRPRPRPHFVPRP | -0.0262
145 | RRIRVRPPRLPRPRPRPHGGPRP | -0.0243
146 | RRIRVRPPRLPRPRPRPHHIPRP | -0.386
147 | RRIRVRPPRLPRPRPRPHKDPRP | -0.36
148 | RRIRVRPPRLPRPRPRPHKPPRP | -0.0132
149 | RRIRVRPPRLPRPRPRPHLTPRP | -0.333
150 | RRIRVRPPRLPRPRPRPHNDPRP | -0.318

From the supplement of paper PMC9112550, “Optimization of the antimicrobial peptide Bac7 by deep mutational scanning” (BMC Biology, 2022)
